Assay results as given in patent US20250313634A1 (WUXI BIOLOGICS SHANGHAI, published 2025).

Tests used:
Test in all cases: capture ELISA on coated 1.14.4; relative to silent alanine substitutions
[1] = biological target: T1, hPD-L1_ECD.His point mutant P216A (human, UniProt Q9NZQ7 19-238)
T1 construct: extracellular domain
Procedure: (§1) After interacting with the supernatant that contains quantified PD-L1 mutant or human/mouse PD-L1_ECD.His protein (Sino Biological, China), HRP conjugated anti-His antibody (1:5000; Rockland Immunochemicals, Pottstown, PA) was added as detection antibody. Absorbance was normalized according to the average of control mutants. After setting an additional cutoff to the binding fold change (<0.55), the final determined epitope residues were identified.
(§2) The observed binding reductions most probably resulted from the instability or even collapse of hPD-L1 structure after alanine substitutions. After setting an additional cutoff to the binding fold change (<0.55), the final determined epitope residues were listed in Table 3.

[2] = biological target: T2, hPD-L1_ECD.His point mutant E218A (human, UniProt Q9NZQ7 19-238)
T2 construct: extracellular domain
T2 sequence (Q9NZQ7 19-238 E218A): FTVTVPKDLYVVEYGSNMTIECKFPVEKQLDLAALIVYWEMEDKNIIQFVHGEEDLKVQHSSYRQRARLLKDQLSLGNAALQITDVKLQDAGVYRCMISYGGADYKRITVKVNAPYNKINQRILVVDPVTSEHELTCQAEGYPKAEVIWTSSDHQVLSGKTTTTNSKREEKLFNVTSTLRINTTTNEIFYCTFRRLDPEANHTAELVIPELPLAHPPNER
Procedure: as §1, §2

[3] = biological target: T3, hPD-L1_ECD.His point mutant V21A (human, UniProt Q9NZQ7 19-238)
T3 construct: extracellular domain
T3 sequence (Q9NZQ7 19-238 V21A): as the sequence (Q9NZQ7 19-238 E218A) above, with V3A, A200E counted along it
Procedure: as §1, §2

[4] = biological target: T4, hPD-L1_ECD.His point mutant N183A (human, UniProt Q9NZQ7 19-238)
T4 construct: extracellular domain
T4 sequence (Q9NZQ7 19-238 N183A): as the sequence (Q9NZQ7 19-238 E218A) above, with N165A, A200E counted along it
Procedure: as §1, §2

[5] = biological target: T5, hPD-L1_ECD.His point mutant K41A (human, UniProt Q9NZQ7 19-238)
T5 construct: extracellular domain
T5 sequence (Q9NZQ7 19-238 K41A): as the sequence (Q9NZQ7 19-238 E218A) above, with K23A, A200E counted along it
Procedure: as §1, §2

[6] = biological target: T6, hPD-L1_ECD.His point mutant N131A (human, UniProt Q9NZQ7 19-238)
T6 construct: extracellular domain
T6 sequence (Q9NZQ7 19-238 N131A): as the sequence (Q9NZQ7 19-238 E218A) above, with N113A, A200E counted along it
Procedure: as §1, §2

[7] = biological target: T7, hPD-L1_ECD.His point mutant S34A (human, UniProt Q9NZQ7 19-238)
T7 construct: extracellular domain
T7 sequence (Q9NZQ7 19-238 S34A): as the sequence (Q9NZQ7 19-238 E218A) above, with S16A, A200E counted along it
Procedure: as §1, §2

[8] = biological target: T8, hPD-L1_ECD.His point mutant I206A (human, UniProt Q9NZQ7 19-238)
T8 construct: extracellular domain
T8 sequence (Q9NZQ7 19-238 I206A): as the sequence (Q9NZQ7 19-238 E218A) above, with I188A, A200E counted along it
Procedure: as §1, §2

[9] = biological target: T9, hPD-L1_ECD.His point mutant V147A (human, UniProt Q9NZQ7 19-238)
T9 construct: extracellular domain
T9 sequence (Q9NZQ7 19-238 V147A): as the sequence (Q9NZQ7 19-238 E218A) above, with V129A, A200E counted along it
Procedure: as §1, §2

[10] = biological target: T10, hPD-L1_ECD.His point mutant G110A (human, UniProt Q9NZQ7 19-238)
T10 construct: extracellular domain
T10 sequence (Q9NZQ7 19-238 G110A): as the sequence (Q9NZQ7 19-238 E218A) above, with G92A, A200E counted along it
Procedure: as §1, §2

[11] = biological target: T11, hPD-L1_ECD.His point mutant Q107A (human, UniProt Q9NZQ7 19-238)
T11 construct: extracellular domain
T11 sequence (Q9NZQ7 19-238 Q107A): as the sequence (Q9NZQ7 19-238 E218A) above, with Q89A, A200E counted along it
Procedure: as §1, §2

[12] = biological target: T12, hPD-L1_ECD.His point mutant K75A (human, UniProt Q9NZQ7 19-238)
T12 construct: extracellular domain
T12 sequence (Q9NZQ7 19-238 K75A): as the sequence (Q9NZQ7 19-238 E218A) above, with K57A, A200E counted along it
Procedure: as §1, §2

[13] = biological target: T13, hPD-L1_ECD.His point mutant S169A (human, UniProt Q9NZQ7 19-238)
T13 construct: extracellular domain
T13 sequence (Q9NZQ7 19-238 S169A): as the sequence (Q9NZQ7 19-238 E218A) above, with S151A, A200E counted along it
Procedure: as §1, §2

[14] = biological target: T14, hPD-L1_ECD.His point mutant L142A (human, UniProt Q9NZQ7 19-238)
T14 construct: extracellular domain
T14 sequence (Q9NZQ7 19-238 L142A): as the sequence (Q9NZQ7 19-238 E218A) above, with L124A, A200E counted along it
Procedure: as §1, §2

[15] = biological target: T15, hPD-L1_ECD.His point mutant K89A (human, UniProt Q9NZQ7 19-238)
T15 construct: extracellular domain
T15 sequence (Q9NZQ7 19-238 K89A): as the sequence (Q9NZQ7 19-238 E218A) above, with K71A, A200E counted along it
Procedure: as §1, §2

[16] = biological target: T16, hPD-L1_ECD.His point mutant L175A (human, UniProt Q9NZQ7 19-238)
T16 construct: extracellular domain
T16 sequence (Q9NZQ7 19-238 L175A): as the sequence (Q9NZQ7 19-238 E218A) above, with L157A, A200E counted along it
Procedure: as §1, §2

[17] = biological target: T17, hPD-L1_ECD.His point mutant E188A (human, UniProt Q9NZQ7 19-238)
T17 construct: extracellular domain
T17 sequence (Q9NZQ7 19-238 E188A): as the sequence (Q9NZQ7 19-238 E218A) above, with E170A, A200E counted along it
Procedure: as §1, §2

[18] = biological target: T18, hPD-L1_ECD.His point mutant R86A (human, UniProt Q9NZQ7 19-238)
T18 construct: extracellular domain
T18 sequence (Q9NZQ7 19-238 R86A): as the sequence (Q9NZQ7 19-238 E218A) above, with R68A, A200E counted along it
Procedure: as §1, §2

[19] = biological target: T19, hPD-L1_ECD.His point mutant G95A (human, UniProt Q9NZQ7 19-238)
T19 construct: extracellular domain
T19 sequence (Q9NZQ7 19-238 G95A): as the sequence (Q9NZQ7 19-238 E218A) above, with G77A, A200E counted along it
Procedure: as §1, §2

[20] = biological target: T20, hPD-L1_ECD.His point mutant A98G (human, UniProt Q9NZQ7 19-238)
T20 construct: extracellular domain
T20 sequence (Q9NZQ7 19-238 A98G): as the sequence (Q9NZQ7 19-238 E218A) above, with A80G, A200E counted along it
Procedure: as §1, §2

[21] = biological target: T21, hPD-L1_ECD.His point mutant T203A (human, UniProt Q9NZQ7 19-238)
T21 construct: extracellular domain
T21 sequence (Q9NZQ7 19-238 T203A): as the sequence (Q9NZQ7 19-238 E218A) above, with T185A, A200E counted along it
Procedure: as §1, §2

[22] = biological target: T22, hPD-L1_ECD.His point mutant V225A (human, UniProt Q9NZQ7 19-238)
T22 construct: extracellular domain
T22 sequence (Q9NZQ7 19-238 V225A): as the sequence (Q9NZQ7 19-238 E218A) above, with A200E, V207A counted along it
Procedure: as §1, §2

[23] = biological target: T23, hPD-L1_ECD.His point mutant D122A (human, UniProt Q9NZQ7 19-238)
T23 construct: extracellular domain
T23 sequence (Q9NZQ7 19-238 D122A): as the sequence (Q9NZQ7 19-238 E218A) above, with D104A, A200E counted along it
Procedure: as §1, §2

[24] = biological target: T24, hPD-L1_ECD.His point mutant L214A (human, UniProt Q9NZQ7 19-238)
T24 construct: extracellular domain
T24 sequence (Q9NZQ7 19-238 L214A): as the sequence (Q9NZQ7 19-238 E218A) above, with L196A, A200E counted along it
Procedure: as §1, §2

[25] = biological target: T25, hPD-L1_ECD.His point mutant M115A (human, UniProt Q9NZQ7 19-238)
T25 construct: extracellular domain
T25 sequence (Q9NZQ7 19-238 M115A): as the sequence (Q9NZQ7 19-238 E218A) above, with M97A, A200E counted along it
Procedure: as §1, §2

[26] = biological target: T26, hPD-L1_ECD.His point mutant L94A (human, UniProt Q9NZQ7 19-238)
T26 construct: extracellular domain
T26 sequence (Q9NZQ7 19-238 L94A): as the sequence (Q9NZQ7 19-238 E218A) above, with L76A, A200E counted along it
Procedure: as §1, §2

T1 sequence (Q9NZQ7 19-238 P216A): as the sequence (Q9NZQ7 19-238 E218A) above, with P198A, A200E counted along it

B1: 1.14.4 (antibody, V domains shown)
VH: EVQLLESGGGLVQPGGSLRLSCAASGFTFSSYAMSWVRQAPGKGLEWVSGISGSGGFTYYADSVKGRFTISRDNSKNTLYLQMNSLRAEDTAVYYCAKPPRGYNYGPFDYWGQGTLVTVSS
VL: SYVLTQPPSVSVAPGQTARITCGGNNIGSKSVHWYQQKPGQAPVLVVYDDSDRPSGIPERFSGSNSGNTATLTISRVEAGDEADYYCQVWDSSSDHVVFGGGTKLTVL
notes: Fully human monoclonal antibody with a human constant region of IgG4 isotype
B1 gave a fold change [1] of 0.563 fold, a fold change [2] of 0.732 fold and a fold change [3] of 0.803 fold. It also gave a fold change [4] of 0.944 fold, a fold change [5] of 1.07 fold and a fold change [6] of 0.68 fold. For the same binder, the fold change [7] was 0.813 fold, the fold change [8] was 0.876 fold and the fold change [9] was 1.02 fold. It also gave a fold change [10] of 0.632 fold, a fold change [11] of 0.792 fold and a fold change [12] of 1.01 fold. The fold change [13] was 0.939 fold, the fold change [14] was 1.05 fold and the fold change [15] was 0.913 fold. The fold change [16] was 0.842 fold, the fold change [17] was 0.833 fold and the fold change [18] was 1 fold. For the same binder, the fold change [19] was 0.668 fold, the fold change [20] was 1.01 fold and the fold change [21] was 0.87 fold. It also gave a fold change [22] of 0.749 fold, a fold change [23] of 1.22 fold and a fold change [24] of 0.958 fold. The fold change [25] was 1.02 fold and the fold change [26] was 1.19 fold.
